B1: BCMA × CD3 κλ005 (bispecific antibody)
light 1: DIVLTQSPASLAVSPGQRATITCRASKSVSTSGYSYMHWYQKKPGQPPKLLIYLASNLESGVPARFSGSGSGTDFTLTINPVEAEDTANYYCQHSRELPWTFGQGTKVEIKRTVAAPSVFIFPPSDEQLKSGTASVVCLLNNFYPREAKVQWKVDNALQSGNSQESVTEQDSKDSTYSLSSTLTLSKADYEKHKVYACEVTHQGLSSPVTKSFNRGEC
heavy 1: QVQLVQSGSELKKPGASVKVSCKASGYIFTNFGMNWVREAPGQGLEWMGWINTYTGEQIYADGFTGRFVFSLDTSVSTAYLQISSLKAEDTAVYFCARGEIYYGYDVGFVYWGQGTLVTVSSASTKGPSVFPLAPCSRSTSESTAALGCLVKDYFPEPVTVSWNSGALTSGVHTFPAVLQSSGLYSLSSVVTVPSSSLGTKTYTCNVDHKPSNTKVDKRVESKYGPPCPPCPAPEFEGGPSVFLFPPKPKDTLMISRTPEVTCVVVDVSQEDPEVQFNWYVDGVEVHNAKTKPREEQFNSTYRVVSVLTVLHQDWLNGKEYKCKVSNKGLASSIEKTISKAKGQPREPQVCTLPPSQEEMTKNQVSLSCAVKGFYPSDIAVEWESNGQPENNYKTTPPVLDSDGSFFLVSKLTVDKSRWQEGNVFSCSVMHEALHNHYTQKSLSLSLGK
light 2: QAVVTQEPSLTVSPGGTVTLTCRSSTGAVTTSNYANWVQEKPGQAPRGLIGGTNKRAPWTPARFSGSLLGGKAALTITGAQAEDEAEYYCVLWYSNLWVFGGGTKLTVLGQPKAAPSVTLFPPSSEELQANKATLVCLISDFYPGAVTVAWKADSSPVKAGVETTTPSKQSNNKYAASSYLSLTPEQWKSHRSYSCQVTHEGSTVEKTVAPTECS
heavy 2: EVQLVESGGGLVQPGGSLRLSCAASGFTFNTYAMNWVRKAPGKGLEWVGRIRSKYNNYATYYADSVKDRFTISRDDSKNSLYLQMNSLKTEDTAVYYCVRHGNFGNSYVSWFAYWGQGTLVTVSSASTKGPSVFPLAPCSRSTSESTAALGCLVKDYFPEPVTVSWNSGALTSGVHTFPAVLQSSGLYSLSSVVTVPSSSLGTKTYTCNVDHKPSNTKVDKRVESKYGPPCPPCPAPEFEGGPSVFLFPPKPKDTLMISRTPEVTCVVVDVSQEDPEVQFNWYVDGVEVHNAKTKPREEQFNSTYRVVSVLTVLHQDWLNGKEYKCKVSNKGLASSIEKTISKAKGQPREPQVYTLPPCQEEMTKNQVSLWCLVKGFYPSDIAVEWESNGQPENNYKTTPPVLDSDGSFFLYSKLTVDKSRWQEGNVFSCSVMHEALHNHYTQKSLSLSLGK
notes: also called BCMA×CD3 κλ bispecific antibody
B2: BCMA × CD3 κλ006 (bispecific antibody)
light 1: DIVLTQSPASLAVSPGQRATITCRASKSVTTSGYSYIHWYQKKPGQPPKLLIYLASDLEAGVPARFSGSGSGTDFTLTINPVEAEDTANYYCQHSRELPWTFGQGTKVEIKRTVAAPSVFIFPPSDEQLKSGTASVVCLLNNFYPREAKVQWKVDNALQSGNSQESVTEQDSKDSTYSLSSTLTLSKADYEKHKVYACEVTHQGLSSPVTKSFNRGEC
heavy 1: QVQLVQSGSELKKPGASVKVSCKASGYIFTNFGMNWVREAPGQGLEWMGWINTYTGEQIYADGFTGRFVFSLDTSVSTAYLQISSLKAEDTAVYFCARGEIYYGYDVGFVYWGQGTLVTVSSASTKGPSVFPLAPCSRSTSESTAALGCLVKDYFPEPVTVSWNSGALTSGVHTFPAVLQSSGLYSLSSVVTVPSSSLGTKTYTCNVDHKPSNTKVDKRVESKYGPPCPPCPAPEFEGGPSVFLFPPKPKDTLMISRTPEVTCVVVDVSQEDPEVQFNWYVDGVEVHNAKTKPREEQFNSTYRVVSVLTVLHQDWLNGKEYKCKVSNKGLASSIEKTISKAKGQPREPQVCTLPPSQEEMTKNQVSLSCAVKGFYPSDIAVEWESNGQPENNYKTTPPVLDSDGSFFLVSKLTVDKSRWQEGNVFSCSVMHEALHNHYTQKSLSLSLGK
light 2: QAVVTQEPSLTVSPGGTVTLTCRSSTGAVTTSNYANWVQEKPGQAPRGLIGGTNKRAPWTPARFSGSLLGGKAALTITGAQAEDEAEYYCVLWYSNLWVFGGGTKLTVLGQPKAAPSVTLFPPSSEELQANKATLVCLISDFYPGAVTVAWKADSSPVKAGVETTTPSKQSNNKYAASSYLSLTPEQWKSHRSYSCQVTHEGSTVEKTVAPTECS
heavy 2: EVQLVESGGGLVQPGGSLRLSCAASGFTFNTYAMNWVRKAPGKGLEWVGRIRSKYNNYATYYADSVKDRFTISRDDSKNSLYLQMNSLKTEDTAVYYCVRHGNFGNSYVSWFAYWGQGTLVTVSSASTKGPSVFPLAPCSRSTSESTAALGCLVKDYFPEPVTVSWNSGALTSGVHTFPAVLQSSGLYSLSSVVTVPSSSLGTKTYTCNVDHKPSNTKVDKRVESKYGPPCPPCPAPEFEGGPSVFLFPPKPKDTLMISRTPEVTCVVVDVSQEDPEVQFNWYVDGVEVHNAKTKPREEQFNSTYRVVSVLTVLHQDWLNGKEYKCKVSNKGLASSIEKTISKAKGQPREPQVYTLPPCQEEMTKNQVSLWCLVKGFYPSDIAVEWESNGQPENNYKTTPPVLDSDGSFFLYSKLTVDKSRWQEGNVFSCSVMHEALHNHYTQKSLSLSLGK
notes: as for B1
B3: aCD3-hVH1/VL5 (antibody, human IgG4, V domains shown)
VH: EVQLVESGGGLVQPGGSLRLSCAASGFTFNTYAMNWVRQAPGKGLEWVSRIRSKYNNYATYYADSVKDRFTISRDDSKNTLYLQMNSLRAEDTAVYYCVRHGNFGNSYVSWFAYWGQGTLVTVSS
VL: QAVVTQEPSLTVSPGGTVTLTCRSSTGAVTTSNYANWVQEKPGQAPRGLIGGTNKRAPWTPARFSGSLLGGKAALTITGAQAEDEAEYYCVLWYSNLWVFGGGTKLTVL
notes: also called humanized anti-CD3 antibody hVH1/VL5
B4: aCD3-hVH9/VL1 (antibody, human IgG4, V domains shown)
VH: EVQLVESGGGLVQPGGSLRLSCAASGFTFNTYAMNWVRKAPGKGLEWVGRIRSKYNNYATYYADSVKDRFTISRDDSKNSLYLQMNSLKTEDTAVYYCVRHGNFGNSYVSWFAYWGQGTLVTVSS
VL: QAVVTQEPSLTVSPGGTVTLTCRSSTGAVTTSNYANWVQQKPGQAPRGLIGGTNKRAPWTPARFSGSLLGGKAALTLSGAQPEDEAEYYCALWYSNLWVFGGGTKLTVL
notes: also called humanized anti-CD3 antibody hVH9/VL1
B5: aCD3-hVH9/VL3 (antibody, human IgG4, V domains shown)
VH: EVQLVESGGGLVQPGGSLRLSCAASGFTFNTYAMNWVRKAPGKGLEWVGRIRSKYNNYATYYADSVKDRFTISRDDSKNSLYLQMNSLKTEDTAVYYCVRHGNFGNSYVSWFAYWGQGTLVTVSS
VL: EAVVTQEPSLTVSPGGTVTLTCESSDGAVTTSNYANWVQEKPGQAPRGLIGGTNKEAPWTPARFSGSLLGGKAALTLSGAQPEDEAEYYCALWYSNLWVFGGGTKLTVL
notes: also called humanized anti-CD3 antibody hVH9/VL3
B6: aCD3-hVH8/VL1 (antibody, human IgG4, V domains shown)
VH: EVQLVESGGGLVQPGGSLRLSCAASGFTFNTYAMNWVRKAPGKGLEWVGRIRSKYNNYATYYADSVKDRFTISRDDSKNSLYLQMNSLKTEDTAVYYCARHGNFGNSYVSWFAYWGQGTLVTVSS
VL: QAVVTQEPSLTVSPGGTVTLTCRSSTGAVTTSNYANWVQQKPGQAPRGLIGGTNKRAPWTPARFSGSLLGGKAALTLSGAQPEDEAEYYCALWYSNLWVFGGGTKLTVL
notes: also called humanized anti-CD3 antibody hVH8/VL1
B7: aCD3-hVH8/VL5 (antibody, human IgG4, V domains shown)
VH: EVQLVESGGGLVQPGGSLRLSCAASGFTFNTYAMNWVRKAPGKGLEWVGRIRSKYNNYATYYADSVKDRFTISRDDSKNSLYLQMNSLKTEDTAVYYCARHGNFGNSYVSWFAYWGQGTLVTVSS
VL: QAVVTQEPSLTVSPGGTVTLTCRSSTGAVTTSNYANWVQEKPGQAPRGLIGGTNKRAPWTPARFSGSLLGGKAALTITGAQAEDEAEYYCVLWYSNLWVFGGGTKLTVL
notes: also called humanized anti-CD3 antibody hVH8/VL5

Experiments:
[1] = biological target: T1, human CD3εγ-Fc heterodimer (human); assay: SPR (Biacore T200), antigen amine-coupled on CM5 chip, antibody as analyte, 1:1 model
T1 construct: also called human CD3εγ recombinant protein; human CD3εγ protein
T1 chain 1: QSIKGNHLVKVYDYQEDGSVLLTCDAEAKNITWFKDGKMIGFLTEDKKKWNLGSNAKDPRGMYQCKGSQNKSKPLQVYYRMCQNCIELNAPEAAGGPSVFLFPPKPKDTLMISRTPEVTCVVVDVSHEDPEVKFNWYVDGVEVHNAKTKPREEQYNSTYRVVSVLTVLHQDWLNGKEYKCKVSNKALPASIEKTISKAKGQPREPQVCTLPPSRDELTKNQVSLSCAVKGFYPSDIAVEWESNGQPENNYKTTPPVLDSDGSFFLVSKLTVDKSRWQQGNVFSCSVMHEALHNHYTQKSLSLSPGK
T1 chain 2: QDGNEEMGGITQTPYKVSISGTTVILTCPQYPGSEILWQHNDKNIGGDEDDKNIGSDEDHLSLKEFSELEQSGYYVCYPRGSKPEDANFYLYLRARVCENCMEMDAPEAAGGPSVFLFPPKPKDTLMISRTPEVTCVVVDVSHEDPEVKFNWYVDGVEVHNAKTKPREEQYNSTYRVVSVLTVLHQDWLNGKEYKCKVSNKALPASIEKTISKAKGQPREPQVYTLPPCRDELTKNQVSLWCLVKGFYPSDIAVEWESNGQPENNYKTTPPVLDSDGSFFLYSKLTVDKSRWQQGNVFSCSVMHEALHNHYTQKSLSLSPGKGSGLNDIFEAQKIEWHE
Description: 10 μg/mL human or cynomolgus monkey BCMA or CD3εγ recombinant antigen was bound to a CM5 chip (GE healthcare) by amino conjugating, while the amount of antigen bound was controlled to approximately 200 RU. After baseline plateau, gradient diluted antibodies (7 gradients of 2-fold dilutions from 10 μg/mL) were flowed through the chip at a flow rate of 30 μL/min for a binding time of 350 seconds and a dissociation time of 600 seconds. Kinetic constants were fitted using Biacore T200 evaluation software with a 1:1 binding model.

[2] = biological target: T1, human CD3εγ-Fc heterodimer; assay: ELISA, coated human CD3εγ recombinant protein
Description: Human CD3εγ recombinant protein was coated overnight at 4° C. After blocking with 2% skim milk, different dilutions of CD3 antibody were added to each well and incubated for 1 hour. After the secondary antibody was developed by adding HPR-labeled goat anti-human IgG Fc and TMB solution, the reaction was stopped with concentrated sulfuric acid and the absorbance was read at 450 nm.

[3] = biological target: T2, human CD3 on T cells (Jurkat cells; human peripheral blood CD4+ and CD8+ T-cells) (human, UniProt P07766 23-207); assay: flow cytometry on Jurkat cells
T2 construct: whole, on cells; also called CD4T; CD4 + T
Description: Jurkat cells in logarithmic growth phase were blocked with 3% BSA for 30 min, added to 96-well U-plate at 5×10^4 cells per well, centrifuged to discard the supernatant, and added with 50 μL of gradient diluted antibody (antibody concentration:from 30 μg/mL, with 3-fold dilution for 5 gradients) per well, and incubated at 4° C. for 1 hour. After washing off the primary antibody, a 1:300 dilution of Alexa Fluro647 labeled goat anti-human IgG Fc (Jackson ImmunoResearch, 109-606-170) was added to the secondary antibody, incubated for 45 min at 4° C., and, after washing, resuspended in 50 μL of PBS per well for FACS (iQue, intellicyt) detection.

Binder	Kd [1] [nM]	affinity (ELISA) [2] [nM]	affinity (FACS) [3] [nM]
B1	28		
B2	27		
B3		0.6	10
B4		0.49	7
B5		0.7	
B6		0.65	15
B7		0.74	

From US20250346685A1 (published 2025)
